One experiment has as its target T1, CCK1R (Homo sapiens, UniProt P32238).
T1 construct: expressed in transfected cells; host or cells: HEK293
T1 sequence (P32238 1-428): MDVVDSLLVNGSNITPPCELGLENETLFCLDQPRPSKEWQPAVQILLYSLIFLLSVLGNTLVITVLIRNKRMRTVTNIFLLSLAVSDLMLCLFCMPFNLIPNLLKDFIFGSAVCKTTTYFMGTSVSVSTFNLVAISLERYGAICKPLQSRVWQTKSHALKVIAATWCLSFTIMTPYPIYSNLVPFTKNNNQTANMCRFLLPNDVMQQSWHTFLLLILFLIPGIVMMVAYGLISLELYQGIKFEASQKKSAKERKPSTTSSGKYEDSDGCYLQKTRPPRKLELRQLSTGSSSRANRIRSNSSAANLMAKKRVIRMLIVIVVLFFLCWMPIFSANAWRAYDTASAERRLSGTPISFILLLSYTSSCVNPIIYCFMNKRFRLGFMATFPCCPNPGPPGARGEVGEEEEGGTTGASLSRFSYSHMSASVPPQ
As to the kind of experiment: SRE-luciferase agonist assay in transfected HEK293 cells. The class given is cell-based. The note with it: tethered ligand cDNA cotransfected, 24 hours. The procedure: (§1) A) Tethered CCK4-Gly activates the CCK2 receptor (left panel). Potency of the corresponding soluble lipidated ligand agent (1-CCK4-Gly) exceeds that of soluble CCK-4-Gly (right panel). […] HEK293 cells were transiently cotransfected with cDNAs encoding: the designated CCK receptor subtype, a 5X-SRE-Luc-pest reporter gene (pGL4.33), tethered ligand (as indicated) and a β-galactosidase gene to control for transfection efficiency. Tethered ligand activity was measured 24 hours following transfection. To assess activity of soluble and lipidated CCK-4-Gly, cells were stimulated for 4 hours with ligand. Both soluble and tethered ligand activity was quantified relative to a parallel preparation of CCK receptor expressing cells stimulated for 4 hours with soluble amidated CCK-4 (s-CCK4-NH2, 10 μM) for CCK-2R and soluble amidated CCK-8 (s-CCK8-NH2, 10 μM) for CCK-1R.
(§2) Neurokinin receptors were purchased from the Missouri S+T cDNA Resource center. […] The nucleotide sequences of all receptor coding regions and tethered ligands were confirmed by automated DNA sequencing and analyzed using Vector NTI software (Invitrogen).

A further experiment deals with T2, CCK2R (Homo sapiens, UniProt P32239).
T2 construct: expressed in transfected cells; host or cells: HEK293
T2 sequence (P32239 1-447): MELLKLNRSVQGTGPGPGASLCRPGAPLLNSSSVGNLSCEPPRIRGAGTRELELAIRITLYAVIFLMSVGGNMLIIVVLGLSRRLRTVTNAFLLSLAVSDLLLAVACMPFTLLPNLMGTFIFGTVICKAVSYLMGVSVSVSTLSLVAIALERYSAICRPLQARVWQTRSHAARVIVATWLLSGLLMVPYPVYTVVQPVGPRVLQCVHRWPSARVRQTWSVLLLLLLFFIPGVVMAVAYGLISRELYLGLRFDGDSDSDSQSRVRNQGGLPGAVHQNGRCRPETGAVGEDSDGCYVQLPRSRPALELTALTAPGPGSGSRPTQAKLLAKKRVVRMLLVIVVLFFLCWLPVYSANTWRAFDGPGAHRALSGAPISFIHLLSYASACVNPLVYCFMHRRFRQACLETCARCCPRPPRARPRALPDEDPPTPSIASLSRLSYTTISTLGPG
The description is as above. The note with it: tethered ligand cDNA cotransfected, 24 hours. The class given is cell-based. How it is done: as §1, §2

For the substance “tCCK4-Gly: membrane-tethered glycine extended CCK4 (WMDFG) (chain (part 1 of 2) MSTSMIRDVELAEEALPKKTGGPQGSRRCLFSLFIVAGATTLFCLLHFGVI; left off: small tags and cut ends)”, in the experiment with CCK1R, the “Activity of membrane-tethered ligand at CCK1R” value is reported as “no activity”. Also, the “Activity of membrane-tethered ligand at CCK2R” value with CCK2R is given as “activated the CCK2R in a concentration dependent manner”.

The values above are taken from US11254720B2, “Methods and systems for designing and/or characterizing soluble lipidated ligand agents” (Tufts Medical Center, priority 2013, dated 2022).
